From IntAct's records for PubMed 20389280 come the findings set out here.

To fix the notation:
B1: Kelch-like protein 20 (Homo sapiens), Q9Y2M5 (parent)
chain: MEGKPMRRCTNIRPGETGMDVTSRCTLGDPNKLPEGVPQPARMPYISDKHPRQTLEVINLLRKHRELCDVVLVVGAKKIYAHRVILSACSPYFRAMFTGELAESRQTEVVIRDIDERAMELLIDFAYTSQITVEEGNVQTLLPAACLLQLAEIQEACCEFLKRQLDPSNCLGIRAFADTHSCRELLRIADKFTQHNFQEVMESEEFMLLPANQLIDIISSDELNVRSEEQVFNAVMAWVKYSIQERRPQLPQVLQHVRLPLLSPKFLVGTVGSDPLIKSDEECRDLVDEAKNYLLLPQERPLMQGPRTRPRKPIRCGEVLFAVGGWCSGDAISSVERYDPQTNEWRMVASMSKRRCGVGVSVLDDLLYAVGGHDGSSYLNSVERYDPKTNQWSSDVAPTSTCRTSVGVAVLGGFLYAVGGQDGVSCLNIVERYDPKENKWTRVASMSTRRLGVAVAVLGGFLYAVGGSDGTSPLNTVERYNPQENRWHTIAPMGTRRKHLGCAVYQDMIYAVGGRDDTTELSSAERYNPRTNQWSPVVAMTSRRSGVGLAVVNGQLMAVGGFDGTTYLKTIEVFDPDANTWRLYGGMNYRRLGGGVGVIKMTHCESHIW

Variants of B1 are the subject of the test. To be noted: with cul3_human CUL3, Q13618.
For L148A, the “effect of a mutation on the interaction” value is “disrupting interaction”.

As to C146A, the “effect of a mutation on the interaction” value is on record as “disrupting interaction”.

Turning to L150A, the “effect of a mutation on the interaction” value is “disrupting interaction”. Then I111A, with “disrupting interaction”; and V109A, with “disrupting interaction”.
